For data set [1], the system named is HeLa Kyoto. The experiment in a line: solubility in G1/S (NP-40 vs SDS abundance) (log2 ratio); higher = more soluble. The following applies: cell cycle stage: G1/S.
Data set [2] has as its system HeLa Kyoto. The experiment in a line: melting temperature (median over replicates), in situ; higher = more thermally stable.
The test system of data set [3] is HeLa Kyoto. The experiment in a line: solubility change mitosis vs G1/S (difference of NP-40 vs SDS log2 ratios) (log2 ratio difference); higher = more soluble in mitosis.
Data set [4] deals with HeLa Kyoto. The experiment in a line: thermal stability score vs G1/S (z-score of summed log2 fold changes over temperatures); higher = more thermally stable than in G1/S.
The mark [5] stands for this setting: cell cycle stage: early G1 (4.5 h after nocodazole release).
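Wherever melting temperature (median over replicates), in situ is given: HeLa Kyoto cells synchronized by double thymidine or nocodazole block, proteins quantified by TMT10plex mass spectrometry, three independent biological replicates.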
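Wherever solubility change mitosis vs G1/S (difference of NP-40 vs SDS log2 ratios) is given: synchronized HeLa Kyoto cells (double thymidine block for G1/S, nocodazole release for mitosis), protein amounts in NP-40 versus SDS lysates quantified by mass spectrometry, three biological replicates.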
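Wherever solubility in G1/S (NP-40 vs SDS abundance) is given: HeLa Kyoto cells arrested at G1/S by double thymidine block, proteins quantified by TMT10plex mass spectrometry in mild NP-40 versus SDS extracts, three biological replicates.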
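Wherever thermal stability score vs G1/S (z-score of summed log2 fold changes over temperatures) is given: synchronized HeLa Kyoto cells, proteins quantified by TMT10plex mass spectrometry, three biological replicates, mitosis taken 0.5 h after nocodazole release, G1/S directly after double thymidine block.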

As for “MDETSPLVSPERAQPPDYTFPSGSGAHFPQVPGGAVRVAAAAGSGPSPPGSPGHDRERQPLLDRARGAAAQGQTQTVAAQAQALAAQAAAAAHAAQAHRERNEFPEDPEFEAVVRQAELAIERCIFPERIYQGSSGSYFVKDPQGRIIAVFKPKNEEPYGHLNPKWTKWLQKLCCPCCFGRDCLVLNQGYLSEAGASLVDQKLELNIVPRTKVVYLASETFNYSAIDRVKSRGKRLALEKVPKVGQRFNRIGLPPKVGSFQLFVEGYKDADYWLRRFEAEPLPENTNRQLLLQFERLVVLDYIIRNTDRGNDNWLIKYDCPMDSSSSRDTDWVVVKEPVIKVAAIDNGLAFPLKHPDSWRAYPFYWAWLPQAKVPFSQEIKDLILPKISDPNFVKDLEEDLYELFKKDPGFDRGQFHKQIAVMRGQILNLTQALKDNKSPLHLVQMPPVIVETARSHQRSSSESYTQSFQSRKPFFSWW [PI4K2A]”, in data set [1], the “solubility in G1/S (log2)” value was found to be 0.202. In addition, the melting temperature stood at 53.9 °C in data set [2] (cell cycle stage: G1/S) and 53.6 °C in data set [2] (cell cycle stage: mitosis). Also, the “solubility change mitosis (log2)” value in data set [3] is -0.137. Moreover, the thermal stability score in data set [4] (setting [5]) was 1.81; in data set [4] (cell cycle stage: mitosis) it was -1.09.

Regarding “MDFPCLWLGLLLPLVAALDFNYHRQEGMEAFLKTVAQNYSSVTHLHSIGKSVKGRNLWVLVVGRFPKEHRIGIPEFKYVANMHGDETVGRELLLHLIDYLVTSDGKDPEITNLINSTRIHIMPSMNPDGFEAVKKPDCYYSIGRENYNQYDLNRNFPDAFEYNNVSRQPETVAVMKWLKTETFVLSANLHGGALVASYPFDNGVQATGALYSRSLTPDDDVFQYLAHTYASRNPNMKKGDECKNKMNFPNGVTNGYSWYPLQGGMQDYNYIWAQCFEITLELSCCKYPREEKLPSFWNNNKASLIEYIKQVHLGVKGQVFDQNGNPLPNVIVEVQDRKHICPYRTNKYGEYYLLLLPGSYIINVTVPGHDPHITKVIIPEKSQNFSALKKDILLPFQGQLDSIPVSNPSCPMIPLYRNLPDHSAATKPSLFLFLVSLLHIFFK”, the “solubility in G1/S (log2)” value in data set [1] was 0.0898. Also, the melting temperature in data set [2] (cell cycle stage: G1/S) came to 57.6 °C; in data set [2] (cell cycle stage: mitosis), 56.3 °C. Moreover, in data set [3], the “solubility change mitosis (log2)” value is -0.0348. Moreover, the thermal stability score is 2.04 in data set [4] (setting [5]) and 3.27 in data set [4] (cell cycle stage: mitosis).

With “MDFSRNLYDIGEQLDSEDLASLKFLSLDYIPQRKQEPIKDALMLFQRLQEKRMLEESNLSFLKELLFRINRLDLLITYLNTRKEEMERELQTPGRAQISAYRVMLYQISEEVSRSELRSFKFLLQEEISKCKLDDDMNLLDIFIEMEKRVILGEGKLDILKRVCAQINKSLLKIINDYEEFSKERSSSLEGSPDEFSNGEELCGVMTISDSPREQDSESQTLDKVYQMKSKPRGYCLIINNHNFAKAREKVPKLHSIRDRNGTHLDAGALTTTFEELHFEIKPHDDCTVEQIYEILKIYQLMDHSNMDCFICCILSHGDKGIIYGTDGQEAPIYELTSQFTGLKCPSLAGKPKVFFIQACQGDNYQKGIPVETDSEEQPYLEMDLSSPQTRYIPDEADFLLGMATVNNCVSYRNPAEGTWYIQSLCQSLRERCPRGDDILTILTEVNYEVSNKDDKKNMGKQMPQPTFTLRKKLVFPSD [CASP8]”, the “solubility in G1/S (log2)” value in data set [1] amounted to 0.075. Further, the melting temperature in data set [2] (cell cycle stage: G1/S) came to 48.5 °C; in data set [2] (cell cycle stage: mitosis), 48.7 °C. Also, the “solubility change mitosis (log2)” value in data set [3] is -0.167. Moreover, the thermal stability score was 0.959 in data set [4] (setting [5]) and 2 in data set [4] (cell cycle stage: mitosis).

Turning to “MDFTAQPKPATALCGVVSADGKIAYPPGVKEITDKITTDEMIKRLKMVVKTFMDMDQDSEDEKQQYLPLALHLASEFFLRNPNKDVRLLVACCLADIFRIYAPEAPYTSHDKLKDIFLFITRQLKGLEDTKSPQFNRYFYLLENLAWVKSYNICFELEDCNEIFIQLFRTLFSVINNSHNKKVQMHMLDLMSSIIMEGDGVTQELLDSILINLIPAHKNLNKQSFDLAKVLLKRTVQTIEACIANFFNQVLVLGRSSVSDLSEHVFDLIQELFAIDPHLLLSVMPQLEFKLKSNDGEERLAVVRLLAKLFGSKDSDLATQNRPLWQCFLGRFNDIHVPVRLESVKFASHCLMNHPDLAKDLTEYLKVRSHDPEEAIRHDVIVTIITAAKRDLALVNDQLLGFVRERTLDKRWRVRKEAMMGLAQLYKKYCLHGEAGKEAAEKVSWIKDKLLHIYYQNSIDDKLLVEKIFAQYLVPHNLETEERMKCLYYLYASLDPNAVKALNEMWKCQNMLRSHVRELLDLHKQPTSEANCSAMFGKLMTIAKNLPDPGKAQDFVKKFNQVLGDDEKLRSQLELLISPTCSCKQADICVREIARKLANPKQPTNPFLEMVKFLLERIAPVHIDSEAISALVKLMNKSIEGTADDEEEGVSPDTAIRSGLELLKVLSFTHPTSFHSAETYESLLQCLRMEDDKVAEAAIQIFRNTGHKIETDLPQIRSTLIPILHQKAKRGTPHQAKQAVHCIHAIFTNKEVQLAQIFEPLSRSLNADVPEQLITPLVSLGHISMLAPDQFASPMKSVVANFIVKDLLMNDRSTGEKNGKLWSPDEEVSPEVLAKVQAIKLLVRWLLGMKNNQSKSANSTLRLLSAMLVSEGDLTEQKRISKSDMSRLRLAAGSAIMKLAQEPCYHEIITPEQFQLCALVINDECYQVRQIFAQKLHKALVKLLLPLEYMAIFALCAKDPVKERRAHARQCLLKNISIRREYIKQNPMATEKLLSLLPEYVVPYMIHLLAHDPDFTRSQDVDQLRDIKECLWFMLEVLMTKNENNSHAFMKKMAENIKLTRDAQSPDESKTNEKLYTVCDVALCVINSKSALCNADSPKDPVLPMKFFTQPEKDFCNDKSYISEETRVLLLTGKPKPAGVLGAVNKPLSATGRKPYVRSTGTETGSNINVNSELNPSTGNRSREQSSEAAETGVSENEENPVRIISVTPVKNIDPVKNKEINSDQATQGNISSDRGKKRTVTAAGAENIQQKTDEKVDESGPPAPSKPRRGRRPKSESQGNATKNDDLNKPINKGRKRAAVGQESPGGLEAGNAKAPKLQDLAKKAAPAERQIDLQR [PDS5A]”, the “solubility in G1/S (log2)” value in data set [1] was -0.0007. In addition, the melting temperature was 47.2 °C in data set [2] (cell cycle stage: G1/S) and 48.7 °C in data set [2] (cell cycle stage: mitosis). In data set [3], the “solubility change mitosis (log2)” value was -0.126. Also, the thermal stability score stood at 5.43 in data set [4] (setting [5]) and 11.2 in data set [4] (cell cycle stage: mitosis).

For “MDGEEKTYGGCEGPDAMYVKLISSDGHEFIVKREHALTSGTIKAMLSGPGQFAENETNEVNFREIPSHVLSKVCMYFTYKVRYTNSSTEIPEFPIAPEIALELLMAANFLDC [TCEB1]”, the “solubility in G1/S (log2)” value in data set [1] amounted to 0.256. For the same sequence, the melting temperature in data set [2] (cell cycle stage: G1/S) stood at 52.2 °C; in data set [2] (cell cycle stage: mitosis), 52.3 °C. In data set [3], the “solubility change mitosis (log2)” value was -0.0906. In addition, the thermal stability score was -1.38 in data set [4] (setting [5]) and -1.62 in data set [4] (cell cycle stage: mitosis).

The values above are taken from the supplement of paper PMC5998384.
